Measured values published in patent publication US20210163580A1 (NATIONAL HEALTH RESEARCH INSTITUTES, published 2021).
No end group written: not given here. *: point of attachment. Biotin = O=C1N[C@H]2[C@H](CS[C@H]2CCCCC(=O)*)N1

Assays:
[1] = target: T1, RSPO4 (UniProt Q2I0M5 20-234, limits assumed); assay: ELISA on coated antigen (BSA, RSPO1, RSPO2, RSPO3, RSPO4), absorbance 450 nm [A]
[2] = target: T2, RSPO2 (UniProt Q6UXX9 22-243, limits assumed); assay: as above
[3] = target: T3, RSPO1 (UniProt Q2MKA7 21-263, limits assumed); assay: as above
[4] = target: T4, recombinant human RSPO3 protein (human, UniProt Q9BXY4 22-272); assay: BLI (Octet, ForteBio); biotinylated RSPO3 on streptavidin sensors
T4 construct: Used biotinylated on Octet sensors, immobilised on a CM5 chip in Biacore, and coated on ELISA plates; also called hRSPO3; huRSPO3
T4 sequence (looked up): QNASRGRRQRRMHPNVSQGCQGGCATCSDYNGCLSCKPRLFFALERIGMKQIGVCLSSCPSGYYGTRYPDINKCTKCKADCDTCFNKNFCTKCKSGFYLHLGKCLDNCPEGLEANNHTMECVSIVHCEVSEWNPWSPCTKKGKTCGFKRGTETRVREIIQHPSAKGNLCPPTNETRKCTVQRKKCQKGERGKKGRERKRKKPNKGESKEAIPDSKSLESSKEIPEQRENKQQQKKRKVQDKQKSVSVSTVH
Experimental: The streptavidin-coated sensors were coated with 10 μg/ml of biotinylated RSPO3 as described in the handbook of ForteBio. Antibody concentrations were in the range of 0.75 and 93.8 nM. Quantitative kinetic binding analysis was performed with pH-adjusted PBS with 0.5% BSA. All steps were run at 30° C. with a continuous shaking speed at 1000 rpm.
To assess the RSPO3-binding affinities of the antibodies, kinetics assays were performed by the Octetsystems.

[5] = target: T4, recombinant human RSPO3 protein; assay: cell-based or functional assay
[6] = target: T4, recombinant human RSPO3 protein; assay: SPR (Biacore T200); hRSPO3 immobilised on CM5 chip, antibody injected, single-cycle, 1:1 model
Experimental: FIG. 7 is a graph showing use of Biacore to measure the binding kinetics of α-RSPO3 Abs-antigen interaction. The binding sensorgrams were generated using a Biacore T200 and then fitted to a simple 1:1 interaction model. […] The association was monitored for 2 min, and the final dissociation time was 15 min hRSPO3 was immobilized on a CMS chip at 27.5 RU.
The binding kinetics between α-RSPO3 Abs and recombinant human RSPO3 protein (hRSPO3) were performed at 25° C. using a Biacore T200 biosensor equipped with a CMS Series S Sensor Chip (GE Healthcare). […] Obtained sensorgrams were corrected by double subtracting the signal obtained on a reference surface and the signal of the running buffer. Sensograms were fit globally with BIAcore T200 evaluation software 3.0 using 1:1 binding model to yield affinity constants (KD values) for α-RSPO3 Abs. Replicate measurements were made in separate experiments, using independently prepared α-RSPO3 Abs dilution series and huRSPO3-coated chip surfaces.

[7] = target: T1, RSPO4; assay: Western blot: RSPO1-4 on the blot, probed with the hybridoma antibody [B]
[8] = target: T2, RSPO2; assay: as above
[9] = target: T3, RSPO1; assay: as above
[10] = target: T4, recombinant human RSPO3 protein; assay: ELISA on coated antigen (BSA, RSPO1, RSPO2, RSPO3, RSPO4), absorbance 450 nm [B]
[11] = target: T5, GKKGRERKRK; assay: PepSet ELISA: biotinylated 10-mer on NeutrAvidin plate, antibody 10 µg/ml, OD450 [C]
T5 construct: member of the PepSet library m27
T5 peptide: Biotin-SGSGGKKGRERKRK
Text: (§1) FIG. 8 is a set of graphs showing mapping of the α-RSPO3 Ab epitopes on RSPO3 protein by Pep-set.
(§2) The deduced amino acid sequence of RSPO3 (GenBank accession no. NP_116173) was used as the reference sequence to design the PepSet library of biotinylated linear peptides that cover the mature domain of RSPO3. The 121 peptides synthesized by Mimotopes (Victoria, Australia) were 10 amino acids in length and offset by 2 residues in these two formats: Biotin-SGSG-PEPTIDE-NH2 for N-terminal peptide and Biotin-SGSG-PEPTIDE-OH for the C-terminal peptide. The peptides (1-3 mg) were dissolved in 200 microliter 80/20 DMSO/water mixture and further diluted at 1:200 in PBS containing 0.1% BSA and 0.1% sodium azide as working solution. In order to attach different biotinylated peptides on each well of the plates, plates coated with NeutrAvidin and blocked with BSA (Thermo Scientific Pierce, Rockford, Ill.) were utilized. Plates were washed three times with 1× PBS with 0.1% Tween 20 and then […] biotinylated peptide solution was applied to each well of plates. After one hour incubation at room temperature, plates were washed three times again with 1× PBST. α-RSPO3 antibodies at 10 μg/ml were then added to each well of plates and the plates were incubated with agitation for one hour. […] To detect bound anti-RSPO3 antibodies, Goat anti-human IgG-Fc-HPR was then applied to plates for one hour. After removing extra detection antibodies by washing the plates with 1× PBST, 100 μl Tetramethylbenzidine (TMB) substrate solution was added to each well for 20 minutes.

[12] = target: T6, RENKQQQKKR; assay: as above
T6 construct: member of the PepSet library m27
T6 peptide: Biotin-SGSGRENKQQQKKR
Text: as §1, §2

[13] = target: T7, ERGKKGRERK; assay: as above
T7 construct: member of the PepSet library m27
T7 peptide: Biotin-SGSGERGKKGRERK
Text: as §1, §2

[14] = target: T8, KGRERKRKKP; assay: as above
T8 construct: member of the PepSet library m27
T8 peptide: Biotin-SGSGKGRERKRKKP
Text: as §1, §2

[15] = target: T1, RSPO4; assay: Western blot: RSPO1-4 on the blot, probed with the hybridoma antibody [A]
[16] = target: T2, RSPO2; assay: as above
[17] = target: T3, RSPO1; assay: as above

T2 sequence (Q6UXX9 22-243 limits assumed): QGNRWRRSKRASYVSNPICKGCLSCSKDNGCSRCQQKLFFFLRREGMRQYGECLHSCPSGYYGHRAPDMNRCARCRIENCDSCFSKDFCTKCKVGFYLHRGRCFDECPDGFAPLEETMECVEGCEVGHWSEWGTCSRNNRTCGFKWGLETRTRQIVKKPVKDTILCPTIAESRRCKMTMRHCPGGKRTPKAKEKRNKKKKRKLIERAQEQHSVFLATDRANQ
T1 sequence (Q2I0M5 20-234 limits assumed): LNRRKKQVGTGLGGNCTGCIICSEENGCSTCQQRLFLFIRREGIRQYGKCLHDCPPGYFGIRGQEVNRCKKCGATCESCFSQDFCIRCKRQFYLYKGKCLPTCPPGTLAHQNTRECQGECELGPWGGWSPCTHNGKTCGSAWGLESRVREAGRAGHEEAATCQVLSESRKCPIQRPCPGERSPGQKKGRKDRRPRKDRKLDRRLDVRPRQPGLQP
T3 sequence (Q2MKA7 21-263 limits assumed): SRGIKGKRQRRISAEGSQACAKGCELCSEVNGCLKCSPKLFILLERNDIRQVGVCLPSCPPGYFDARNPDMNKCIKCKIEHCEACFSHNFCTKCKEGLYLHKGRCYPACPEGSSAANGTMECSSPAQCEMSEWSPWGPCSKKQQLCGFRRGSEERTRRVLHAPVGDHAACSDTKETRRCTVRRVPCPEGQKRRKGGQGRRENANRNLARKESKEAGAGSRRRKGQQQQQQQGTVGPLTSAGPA

B1: anti-RSPO3 hybridoma antibody A4 (antibody, IgG1, V domains shown)
VH: QVQLQESGAELAKPGASVKMSCKASGHTLTYYWMHWVKQRPGQGLEWIGYIDPSTGYSEYNQRFEGKATLTADKSSGTVYMQLSSLTSEDSAVYYCARNGPFAYWGQGTLVTVSA
VL: DNVLTQSPAIMSASPGEKVTMTCSASSSVNYMYWYQQKPGSSPRLLIYDTSKLASGVPVRFSGSGSGTSYSLTISRMEAEDAATYYCQQWSSSPLTFGVGAKLEIKR
notes: Murine hybridoma mAb; also called clone A4; hybridoma A4
binding result [1]: no binding | binding result [2]: no binding | binding result [3]: no binding | Kd [4]: 27 nM | koff [4]: 0.000884 s⁻¹ | kon [4]: 32700 M⁻¹ s⁻¹

B2: rosmantuzumab (131R010) (antibody, V domains shown)
VH: QVQLVQSGAEVKKPGASVKVSCKASGYTFTDYSIHWVRQAPGQGLEWIGYIYPSNGDSGYNQKFKNRVTMTRDTSTSTAYMELSRLRSEDTAVYYCATYFANNFDYWGQGTTLTVSS
VL: DIQMTQSPSSLSASVGDRVTITCKASQSVDYDGDSYMNWYQQKPGKAPKLLIYAASNLESGVPSRFSGSGSGTDFTLTISPVQAEDFATYYCQQSNEDPLTFGAGTKLELK
IC50 in the WNT reporter assay (MDA-MB436 TCF/LEF-Luc, Wnt3a plus hRSPO3) [5]: 58.7 nM | Kd [6]: 0.02 nM | koff [6]: 0.000181 s⁻¹ | kon [6]: 9.4e+06 M⁻¹ s⁻¹

B3: reference anti-RSPO3 antibody 131R002 (antibody, V domains shown)
VH: QVQLQESGPELVKPGASVKISCKASGYTFTDYSIHWVKQNHGKSLDWIGYIYPSNGDSGYNQKFKNRATLTVDTSSSTAYLEVRRLTFEDSAVYYCATYFANYFDYWGQGTTLTVSS
VL: DIVLTQSPASLAVSLGQRATISCKASQSVDYDGDSYMNWYQQKPGQPPKLLIYAASNLESGIPARFSGSGSGTDFTLNIHPVEEEDAATYYCQQSNEDPLTFGAGTKLELKR
Kd [4]: 1.93 nM | koff [4]: 0.00202 s⁻¹ | kon [4]: 1.05e+06 M⁻¹ s⁻¹

B4: anti-RSPO3 hybridoma antibody B1 (antibody, IgG1, V domains shown)
VH: QIQLQESGPGLVKPSQSLSLTCSVTGYSITSGYYWNWIRQFPGNKLEWMGYISYDGTNNYNPSLKDRISITRDTSMNQFFLKLNSVTTEDTATYYCSVLLIQYFNIWGAGTTVTVSS
VL: DIQMTQSPASLSASVGETVTITCRTSESVNNFLAWFHQKQGKSPQLLVYHAKTLADGVSSRFSGSGSGTQYSLKINSLQPEDFGNYYCQHFWSIPWTFGGGTKLEIKR
notes: Murine hybridoma mAb; also called clone B1
binding result [7]: no binding | binding result [8]: no binding | binding result [9]: no binding | binding result [10]: binds

B5: anti-RSPO3 hybridoma antibody A6 (antibody, IgG2a, V domains shown)
VH: QVQLQQSGAEIVRSGASVKLSCTASGFSITEYYIHWVKQRPDQGLEWIGMIDPENGDTDYAPKFQGKATMTADTSSNTVNLQLSSLTSEDTAVYYCHGPGPLEYWGQGTTLTVSS
VL: DIVMTQSPLSLPVSLGDQASISCRSSQSIVHSNGNTYLEWYLQKPGQSPNLLIYRVSNRFSGVPDRFNGSGSGTDFTLKISRVEPEDLGVYSCFQASHVPYTFGGGTKLEIKR
notes: Murine hybridoma mAb; also called clone A6; hybridoma A6
Kd [4]: 10.4 nM | koff [4]: 0.0025 s⁻¹ | kon [4]: 241000 M⁻¹ s⁻¹ | binding result [11]: binds | binding result [12]: binds | binding result [13]: binds | binding result [14]: binds | binding result [15]: no binding | binding result [16]: no binding | binding result [17]: no binding
